The values that follow come from US20250043020A1.

For experiment [1], the target named is human Ankyrin Repeat Domain-Containing Protein 30A (NY-BR-1), full-length, on cells (human) (UniProt Q9BXX3). Kind of experiment: flow cytometry on NY-BR-1 transfected Bosc23 cells; PE anti-mouse Fcγ subclass I secondary.
Experiment [2] addresses human Ankyrin Repeat Domain-Containing Protein 30B (NY-BR-1.1), full-length, on cells (human) (UniProt Q9BXX2). Kind of experiment: flow cytometry on NY-BR-1.1 transfected Bosc23 cells; PE anti-mouse Fcγ subclass I secondary.
Sequence of UniProt Q9BXX2 (Q9BXX2 whole entry, the tested form may be a part): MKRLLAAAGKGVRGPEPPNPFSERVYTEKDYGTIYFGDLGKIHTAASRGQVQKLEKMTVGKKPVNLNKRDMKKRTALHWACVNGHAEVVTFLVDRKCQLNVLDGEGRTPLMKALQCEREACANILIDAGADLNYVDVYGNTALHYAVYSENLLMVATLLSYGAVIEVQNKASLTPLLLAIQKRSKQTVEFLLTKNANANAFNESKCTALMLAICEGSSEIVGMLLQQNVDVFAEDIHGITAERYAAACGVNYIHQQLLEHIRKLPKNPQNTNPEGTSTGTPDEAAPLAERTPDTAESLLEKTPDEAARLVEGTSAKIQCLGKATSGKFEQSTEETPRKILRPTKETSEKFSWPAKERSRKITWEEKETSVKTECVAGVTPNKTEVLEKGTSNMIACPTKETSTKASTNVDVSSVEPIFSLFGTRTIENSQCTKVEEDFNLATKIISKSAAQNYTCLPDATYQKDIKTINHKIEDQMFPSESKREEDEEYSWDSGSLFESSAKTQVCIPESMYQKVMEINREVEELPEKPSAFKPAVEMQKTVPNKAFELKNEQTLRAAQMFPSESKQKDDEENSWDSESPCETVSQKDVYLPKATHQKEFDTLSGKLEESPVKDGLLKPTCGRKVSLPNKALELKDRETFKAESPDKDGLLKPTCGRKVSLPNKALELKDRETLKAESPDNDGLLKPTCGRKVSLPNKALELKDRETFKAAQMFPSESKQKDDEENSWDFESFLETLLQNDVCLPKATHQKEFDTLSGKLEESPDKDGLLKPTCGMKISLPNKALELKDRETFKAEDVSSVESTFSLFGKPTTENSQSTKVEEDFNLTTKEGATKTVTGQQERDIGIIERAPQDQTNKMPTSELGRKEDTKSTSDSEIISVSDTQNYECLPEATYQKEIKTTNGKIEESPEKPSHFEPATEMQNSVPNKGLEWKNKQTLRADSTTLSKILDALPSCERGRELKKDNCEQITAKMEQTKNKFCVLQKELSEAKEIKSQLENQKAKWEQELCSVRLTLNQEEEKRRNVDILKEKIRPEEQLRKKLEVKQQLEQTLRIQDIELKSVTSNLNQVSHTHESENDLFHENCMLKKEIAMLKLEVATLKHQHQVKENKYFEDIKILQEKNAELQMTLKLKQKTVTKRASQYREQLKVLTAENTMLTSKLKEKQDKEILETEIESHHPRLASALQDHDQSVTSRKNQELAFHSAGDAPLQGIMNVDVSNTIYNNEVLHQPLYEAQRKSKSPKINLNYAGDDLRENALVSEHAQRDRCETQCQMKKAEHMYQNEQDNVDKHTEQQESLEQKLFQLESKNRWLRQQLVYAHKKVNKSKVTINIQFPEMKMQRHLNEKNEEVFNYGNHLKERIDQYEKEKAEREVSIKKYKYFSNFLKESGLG

Sequence of UniProt Q9BXX3 (Q9BXX3 whole entry, the tested form may be a part): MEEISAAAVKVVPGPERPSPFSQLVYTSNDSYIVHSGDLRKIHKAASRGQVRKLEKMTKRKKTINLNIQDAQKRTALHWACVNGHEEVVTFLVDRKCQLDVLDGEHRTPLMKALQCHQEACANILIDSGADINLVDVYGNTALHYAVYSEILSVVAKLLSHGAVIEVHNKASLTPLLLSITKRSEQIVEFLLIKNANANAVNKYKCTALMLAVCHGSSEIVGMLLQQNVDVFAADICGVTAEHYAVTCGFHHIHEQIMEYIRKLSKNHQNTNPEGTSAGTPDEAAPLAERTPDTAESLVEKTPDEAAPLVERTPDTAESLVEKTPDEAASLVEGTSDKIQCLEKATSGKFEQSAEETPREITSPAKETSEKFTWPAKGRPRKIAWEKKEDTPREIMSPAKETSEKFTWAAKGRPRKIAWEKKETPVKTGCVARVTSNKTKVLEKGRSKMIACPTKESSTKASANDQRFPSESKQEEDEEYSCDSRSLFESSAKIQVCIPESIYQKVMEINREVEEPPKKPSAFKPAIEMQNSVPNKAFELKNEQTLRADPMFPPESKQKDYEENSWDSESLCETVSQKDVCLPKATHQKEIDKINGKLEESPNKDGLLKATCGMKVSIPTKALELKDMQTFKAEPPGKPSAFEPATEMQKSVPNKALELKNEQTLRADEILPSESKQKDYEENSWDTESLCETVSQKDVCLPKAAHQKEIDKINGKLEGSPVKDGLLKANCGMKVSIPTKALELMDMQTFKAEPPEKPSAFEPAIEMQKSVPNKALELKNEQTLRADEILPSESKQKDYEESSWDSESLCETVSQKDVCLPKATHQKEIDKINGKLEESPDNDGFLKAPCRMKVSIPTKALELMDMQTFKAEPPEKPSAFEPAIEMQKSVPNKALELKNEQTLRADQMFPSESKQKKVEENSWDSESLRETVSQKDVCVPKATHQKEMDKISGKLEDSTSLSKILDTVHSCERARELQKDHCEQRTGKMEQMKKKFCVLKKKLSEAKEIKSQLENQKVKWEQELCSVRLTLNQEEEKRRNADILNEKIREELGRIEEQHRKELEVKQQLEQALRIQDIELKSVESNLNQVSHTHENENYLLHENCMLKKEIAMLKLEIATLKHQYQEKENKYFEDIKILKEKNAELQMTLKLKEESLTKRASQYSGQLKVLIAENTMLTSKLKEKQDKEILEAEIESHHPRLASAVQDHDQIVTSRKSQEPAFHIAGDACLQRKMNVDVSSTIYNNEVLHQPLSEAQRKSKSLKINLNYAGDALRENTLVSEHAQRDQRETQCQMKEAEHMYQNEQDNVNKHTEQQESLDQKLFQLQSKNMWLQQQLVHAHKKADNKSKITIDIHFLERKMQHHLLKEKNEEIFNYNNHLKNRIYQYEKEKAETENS

With “isotype control (Example 1, flow cytometry with full-length murine antibodies) (antibody)”, the MFI stood at 74 in experiment [1] and 90 in experiment [2].
